Experimental data as given in PMC7840129, “Structural basis for heme-dependent NCoR binding to the transcriptional repressor REV-ERBβ” (Science Advances, 2021).

Tested on: REV-ERBβ LBD
Experiment: DSSO chemical cross-linking, SDS-PAGE
Assay type: binding, human
Details: 4 μM LBD ± heme with 2 μM RID, 600 μM DSSO, 25°C, 45 min
Protocol: To further support this stoichiometry, we performed chemical cross-linking analysis of apo or heme-bound LBD ± RID using DSSO (disuccinimidyl sulfoxide), a cross-linker that cross-links lysine residues as well as serine, threonine, and tyrosine residues (fig. S9, A and B).
Apo or heme-bound REV-ERBβ LBD and NCoR RID protein samples were cross-linked in Hepes gel filtration buffer [25 mM Hepes (pH 7.5) at room temperature, 50 mM NaCl, and 0.5 mM TCEP]. Non–cross-linked negative controls were generated using the same procedure without the addition of DSSO (Thermo Fisher Scientific). Samples included 4 μM apo LBD with or without 2 μM RID and 4 μM heme-bound LBD with or without 2 μM RID; complexes were preincubated 1 hour on ice. Reactions were initiated by spiking DSSO in DMSO at a final concentration of 600 μM in 50-μl solutions. The final molar ratio of cross-linker:protein was 100:1. The reactions were incubated at 25°C for 45 min before being quenched by the addition of tris (pH 8.0) to a final concentration of 50 mM. Each cross-link reaction was done in triplicate, and the reaction replicates were pooled after quenching. Samples (10 μl) were loaded for SDS-PAGE analysis with Coomassie staining to confirm the presence of cross-linked protein. […]

B1: WT RID: mouse NCoR RID (residues 1942 to 2208 in the X50 splice variant) (protein, UniProt Q60974 1942-2208, looked up, fragment)
chain: TITAANFIDVIITRQIASDKDARERGSQSSDSSSSLSSHRYETASDAIEVISPASSPAPPQEKPQAYQPDMVKANQAENESTRQYEGPLHHYRSQQESPSPQQQPPLPPSSQSEGMGQVPRTHRLITLADHICQIITQDFARNQVPSQASTSTFQTSPSALSSTPVRTKTSSRYSPESQSQTVLHPRPGPRVSPENLVDKSRGSRPGKSPERSHIPSEPYEPISPPQGPAVHEKQDSMLLLSQRGVDPAEQRSDSRSPGSISYLPSF
modifications: X50 splice variant
- LBD:RID complexes by cross-linking SDS-PAGE: two bands with molecular weights consistent with 1:1 and 2:1 LBD:RID complexes
